Assay results from publication PMC9503459, “Antifungal Activity, Structural Stability, and Immunomodulatory Effects on Human Immune Cells of Defensin from the Lentil Lens culinaris” (Membranes, 2022).
No end group written: not given here.

Tests used:
[1] = tested on: proteolytic enzymes of Candida albicans; experiment: Sensitivity to proteolytic enzymes of Candida albicans (cell lysate, SDS-PAGE); type: in vitro ADME; conditions: for stability to proteolysis by yeast: up to 72 h
Experimental: (§1) For study of Lc-def sensitivity to the clinical isolate of C. albicans, lysates of yeast cells in different concentration and pH were used basically as previously described for rhesus macaque θ-defensin 1 [22]. Cells were inoculated onto modified YPD medium and grown at 37 ℃ for 48 h before reaching the stationary phase of growth. Cells were harvested by centrifugation, washed two times in sterile phosphate buffered saline (PBS), pH 7.2, or sterile 40 mM sodium acetate, pH 4.0, and resuspended in the corresponding buffer to final concentrations of 1 × 10^9 cells/mL or 1 × 10^3 cells/mL. Two freeze-thaw cycles in liquid nitrogen were used for cell disruption, and supernatants were collected following centrifugation. Supernatants (12.5 μL) were mixed with water solutions (37.5 μL) of Lc-def, α-casein, Psd1, or LL-37 in concentration of 0.67 mg/mL and incubated at 37 ℃ for 72 or 24 h in the case of high or low cell concentration, respectively. To study the possible influence of Lc-def and Psd1 on the degradation process, supernatants (12.5 μL) were mixed with both α-casein or LL-37 in concentration of 1 mg/mL (25 μL) and Lc-def or Psd1 in concentration of 2 mg/mL (12.5 μL). As negative controls, α-casein and peptides were mixed with buffers as well as supernatants were mixed with water without the proteins. The samples were mixed with sample buffer without β-mercaptoethanol (BME), heated at 100 ℃ for 2 min, and analyzed by sodium dodecyl sulfate polyacrylamide gel electrophoresis (SDS-PAGE). Some independent experiments were performed in each case.

[2] = tested on: proteolytic enzymes of Candida albicans; experiment: Influence of defensins on degradation of proteins by C. albicans lysate; type: biochemical; conditions: C. albicans lysate 10^3 cells/mL, pH 7.2, up to 24 h, SDS-PAGE
Experimental: as §1

[3] = CD spectroscopy, secondary structure at different pH and temperature; type: physicochemical; conditions: far-UV CD, 30 µM, 10 mM phosphate buffer pH 7.4
Experimental: Circular dichroism spectra were recorded at different temperatures using a J-810 spectropolarimeter (Jasco, Hachioji, Tokyo, Japan) in a 0.1 cm path length quartz cell (Hellma GmbH and Co. KG, Mullheim, Germany) in the 190–250 nm range 0.2 using solutions of Lc-def in 10 mM phosphate buffer, pH 7.4, or 150 mM sodium chloride, pH 2.5, simulated gastric fluid, at a concentration of 30 µM. Lysolipids were added at final concentration of 1 mM.

[4] = tested on: C. albicans; conditions: at 20 μM; cited from earlier work
Experimental: Here, we investigated an ability of Lc-def to inhibit the growth of clinical isolates of Candida albicans, C. krusei, and C. glabrata. An antifungal activity against Candida species has been shown previously for some plant defensins. For example, the pea defensin Psd1 at the concentration of 20 μM and PvD1 from the common bean at 18.4 μ ...

[5] = tested on: pepsin, trypsin, α-chymotrypsin; experiment: Simulated gastrointestinal digestion in vitro; type: in vitro ADME, porcine pepsin and trypsin, bovine α-chymotrypsin; conditions: pepsin, 0.1 M HCl pH 2.0 (data not shown)
Source text: Digestive enzymes (porcine pepsin and trypsin, bovine α-chymotrypsin), model protein substrate bovine α-casein, and secondary anti-rabbit IgG polyclonal goat antibodies conjugated to HRP and 3,3′,5,5′-tetramethylbenzidine (TMB) substrates were purchased from Sigma-Aldrich (St. Louis, MO, USA). Synthetic lysophospholipids (lyso-palmitoyl phosphatidylcholine (LPPC), lyso-palmitoyl phosphatidylglycerol (LPPG)) were purchased from Avanti Polar Lipids (Alabaster, AL, USA).
Sensitivity of Lc-def to digestive enzymes was examined by simulation of its gastrointestinal digestion in vitro. Gastric digestion was performed for 2 h, using 50 ng of pepsin per 1 μg of preheated at 100 °C for 30 min and intact Lc-def in 0.1 M HCl, pH 2.0. For duodenal digestion, the pH of the mixture resulting from gastric digestion was adjusted to 8.0 by addition of ammonium bicarbonate. The obtained mixture was incubated for 24 h at 37 °C with 2.5 ng of trypsin and 10 ng of α-chymotrypsin per 1 μg of the defensin. The degree of proteolysis was monitored by SDS-PAGE and RP-HPLC. Gel analysis was performed using Gel Doc XR^+ imaging system (Bio-Rad, Hercules, CA, USA) and Image Lab Software v.6.1.0 (Bio-Rad, Hercules, CA, USA). Some independent experiments were performed in each case. The experiment with α-casein was carried out for comparison.

[6] = C. albicans lysate 10^9 cells/mL, 40 mM sodium acetate pH 4.0, 37 °C, SDS-PAGE

CC[C@H](C)[C@H](NC(=O)[C@H](CCCCN)NC(=O)[C@H](CCC(=O)O)NC(=O)[C@H](CCCCN)NC(=O)[C@H](CO)NC(=O)[C@H](CCCCN)NC(=O)[C@H](CCCNC(=N)N)NC(=O)[C@H](Cc1ccccc1)NC(=O)[C@H](Cc1ccccc1)NC(=O)[C@H](CC(=O)O)NC(=O)CNC(=O)[C@H](CC(C)C)NC(=O)[C@@H](N)CC(C)C)C(=O)NCC(=O)N[C@@H](CCCCN)C(=O)N[C@@H](CCC(=O)O)C(=O)N[C@@H](Cc1ccccc1)C(=O)N[C@@H](CCCCN)C(=O)N[C@@H](CCCNC(=N)N)C(=O)N[C@H](C(=O)N[C@H](C(=O)N[C@@H](CCC(N)=O)C(=O)N[C@@H](CCCNC(=N)N)C(=O)N[C@H](C(=O)N[C@@H](CCCCN)C(=O)N[C@@H](CC(=O)O)C(=O)N[C@@H](Cc1ccccc1)C(=O)N[C@@H](CC(C)C)C(=O)N[C@@H](CCCNC(=N)N)C(=O)N[C@@H](CC(N)=O)C(=O)N[C@@H](CC(C)C)C(=O)N[C@H](C(=O)N1CCC[C@H]1C(=O)N[C@@H](CCCNC(=N)N)C(=O)N[C@H](C(=O)N[C@@H](CCC(=O)O)C(=O)N[C@@H](CO)C(=O)O)[C@@H](C)O)C(C)C)[C@@H](C)CC)C(C)C)[C@@H](C)CC [LL-37, reference compound]
remaining at 24 h, 0.5 mg/mL ([1]; Candida albicans cell lysate supernatant (1 × 10^3 cells/mL), C. albicans lysate 10^3 cells/mL, pH 7.2, 37 °C, 24 h, densitometric gel analysis, read-out: intact peptide present in the hydrolysate): ~30%

Psd1: pea Pisum sativum defensin (UNIPROT P81929), recombinant (KTCEHLADTYRGVCFTNASCDDHCKNKAHLISGTCHNWKCFCTQNC; ends and bridges not checked; cysteine pairing not given here; UniProt P81929 1-46, looked up) [reference compound]
stability to proteolysis by yeast [1, 6]: stable | stability to proteolysis by yeast ([1]; C. albicans lysate 10^9 cells/mL, PBS pH 7.2, 37 °C, SDS-PAGE, densitometry, immunoblotting): stable | influence on the rate of α-casein degradation [2]: but not Psd1 decreased the rate of α-casein degradation | Random, % [3]: 30.7% | α-Helix, % [3]: 14.8% | β-Sheet, % [3]: 31.8% | β-Turn, % [3]: 22.8% | growth inhibition of C. albicans [4]: 100%

B1: α-casein: model protein substrate bovine α-casein (protein, UniProt P02662 16-214, looked up)
Alpha-S1-casein: RPKHPIKHQGLPQEVLNENLLRFFVAPFPEVFGKEKVNELSKDIGSESTEDQAMEDIKQMEAESISSSEEIVPNSVEQKHIQKEDVPSERYLGYLEQLLRLKKYKVPQLEIVPNSAEERLHSMKEGIHAQQKEPMIGVNQELAYFYPELFRQFYQLDAYPSGAWYYVPLGTQYTDAPSFSDIPNPIGSENSEKTTMPLW
time after which the protein band was absent ([1]; C. albicans lysate 10^3 cells/mL, pH 7.2, 37 °C, SDS-PAGE): ≤ 8 h | stability to proteolysis by yeast [1, 6]: slow | time to complete degradation ([1]; C. albicans lysate 10^9 cells/mL, pH 7.2, 37 °C, SDS-PAGE): ≤ 2 h | time to almost complete degradation by pepsin [5]: ≤ 5 min
